Source: paper PMC8287571

Legend:
[1] = tested on: GST:atALKBH9B wt (Arabidopsis thaliana); assay: EMSA; settings: EMSA: 5 ng RNA in 10 ul Union Buffer (100 mM Tris-HCl pH 8.0, 1 M NaCl, 8 U RiboLock (so in the source)), 30 min at 4 C, 1.2% agarose; northwestern: 10 mM Tris-HCl pH …
[2] = tested on: GST:RBD (Arabidopsis thaliana); assay: EMSA; settings: EMSA: 5 ng RNA in 10 ul Union Buffer (100 mM Tris-HCl pH 8.0, 1 M NaCl, 8 U RiboLock (so in the source)), 30 min at 4 C, 1.2% agarose; northwestern: 10 mM Tris-HCl pH …

Which Kd [1] does the source give for 3'UTR transcript of AMV RNA3/4 here?
The Kd was 300 nM.

What about the Kd [2] of the same substance?
The Kd was 640 nM.
